Assay results reported in PMC5640804.

Assays:
[1] = target: yeast Golgi t-SNARE complex Sed5/Sec22/Bos1 with D196del Bos1, preassembled and reconstituted into acceptor liposomes (S. cerevisiae) (UniProt Q01590)
[2] = target: yeast Golgi t-SNARE complex Sed5/Sec22/Bos1 with G176W Bos1, preassembled and reconstituted into acceptor liposomes (S. cerevisiae) (UniProt Q01590)

liposome fusion assay (NBD fluorescence), reduction in fusion against WT Bos1; still above the control without Bet1 (% reduction in fusion) [1]: 60
liposome fusion assay (NBD fluorescence), reduction in fusion against WT Bos1; still above the control without Bet1 (% reduction in fusion) [2]: 30
B1: yeast Golgi v-SNARE Bet1, reconstituted into fluorescent donor liposomes (natural protein)
chain: MSSRFAGGNAYQRDTGRTQLFGPADGSNSLDDNVSSALGSTDKLDYSQSTLASLESQSEEQMGAMGQRIKALKSLSLKMGDEIRGSNQTIDQLGDTFHNTSVKLKRTFGNMMEMARRSGISIKTWLIIFFMVGVLFFWVWIT
